Data as given in FireProtDB (doi:10.1111/j.1432-1033.1995.tb20418.x).

Details: Aspergillus oryzae (strain ATCC 42149 / RIB 40), Thermal, DSC, 3/3'-dimethylglutaric acid (DMG) 100 mM, NaCl 2 M, whole UniProt chain shown; for heat capacity change of unfolding / unfolding free energy: 25 °C

B1: Guanyl-specific ribonuclease T1 wild type, P00651 (protein)
chain: MMYSKLLTLTTLLLPTALALPSLVERACDYTCGSNCYSSSDVSTAQAAGYQLHEDGETVGSNSYPHKYNNYEGFDFSVSSPYYEWPILSSGDVYSGGSPGADRVVFNENNQLAGVITHTGASGNNFVECT
- heat capacity change of unfolding (pH 4): 1.59 kcal/mol/K
- unfolding free energy (pH 4): 7.43 kcal/mol
- Tm (pH 4): 72.4 °C
- unfolding enthalpy (calorimetric) (pH 4): 93.7 kcal/mol
- heat capacity change of unfolding (pH 5): 1.59 kcal/mol/K
- unfolding free energy (pH 5): 7.39 kcal/mol
- Tm (pH 5): 73.2 °C
- unfolding enthalpy (calorimetric) (pH 5): 93.2 kcal/mol
- heat capacity change of unfolding (pH 6): 1.59 kcal/mol/K
- unfolding free energy (pH 6): 6.91 kcal/mol
- Tm (pH 6): 70.4 °C
- unfolding enthalpy (calorimetric) (pH 6): 90.2 kcal/mol
- heat capacity change of unfolding (pH 7): 1.59 kcal/mol/K
- unfolding free energy (pH 7): 4.54 kcal/mol
- Tm (pH 7): 66.8 °C
- unfolding enthalpy (calorimetric) (pH 7): 71.7 kcal/mol
- heat capacity change of unfolding (pH 8): 1.59 kcal/mol/K
- unfolding free energy (pH 8): 3.63 kcal/mol
- Tm (pH 8): 65.4 °C
- unfolding enthalpy (calorimetric) (pH 8): 63.8 kcal/mol
